Data published in patent publication US20090317363A1.
Changes are numbered by the printed parent chain.

B1: RANTES derivative: signature sequence SEQ ID NO: 4 fused to positions 10-68 of native RANTES (SEQ ID NO: 1) (ligand)
chain: QGPPLMWLQVCCFAYIARPLPRAHIKEYFYTSGKCSNPAVVFVTRKNRQVCANPEKKWVREYINSLEMS
B2: RANTES derivative: signature sequence SEQ ID NO: 59 fused to positions 10-68 of native RANTES (SEQ ID NO: 1) (ligand)
chain: B1 chain with L5G, M6Q, L8Y, V10S
B3: RANTES derivative: signature sequence SEQ ID NO: 54 fused to positions 10-68 of native RANTES (SEQ ID NO: 1) (ligand)
chain: B1 chain with L5G, M6Q, L8G
B4: RANTES derivative: signature sequence SEQ ID NO: 56 fused to positions 10-68 of native RANTES (SEQ ID NO: 1) (ligand)
chain: B1 chain with W7S, L8S, V10S
B5: RANTES derivative: signature sequence SEQ ID NO: 41 fused to positions 10-68 of native RANTES (SEQ ID NO: 1) (ligand)
chain: B1 chain with W7N
B6: RANTES derivative: signature sequence SEQ ID NO: 63 fused to positions 10-68 of native RANTES (SEQ ID NO: 1) (ligand)
chain: B1 chain with W7S, Q9S
B7: RANTES derivative: signature sequence SEQ ID NO: 6 fused to positions 10-68 of native RANTES (SEQ ID NO: 1) (ligand)
chain: B1 chain with V10T
B8: RANTES derivative: signature sequence SEQ ID NO: 7 fused to positions 10-68 of native RANTES (SEQ ID NO: 1) (ligand)
chain: B1 chain with L8T
B9: RANTES derivative: signature sequence SEQ ID NO: 39 fused to positions 10-68 of native RANTES (SEQ ID NO: 1) (ligand)
chain: B1 chain with M6S, L8S
B10: RANTES derivative: signature sequence SEQ ID NO: 37 fused to positions 10-68 of native RANTES (SEQ ID NO: 1) (ligand)
chain: B1 chain with W7G, L8T, V10S
B11: RANTES derivative: signature sequence SEQ ID NO: 33 fused to positions 10-68 of native RANTES (SEQ ID NO: 1) (ligand)
chain: B1 chain with L5M, W7A, L8G, Q9L, V10S
B12: RANTES derivative: signature sequence SEQ ID NO: 55 fused to positions 10-68 of native RANTES (SEQ ID NO: 1) (ligand)
chain: B1 chain with L5G, M6S, L8S
B13: RANTES derivative: signature sequence SEQ ID NO: 30 fused to positions 10-68 of native RANTES (SEQ ID NO: 1) (ligand)
chain: B1 chain with M6S
B14: RANTES derivative: signature sequence SEQ ID NO: 42 fused to positions 10-68 of native RANTES (SEQ ID NO: 1) (ligand)
chain: B1 chain with L5M, M6S, W7A, L8Y
B15: RANTES derivative: signature sequence SEQ ID NO: 53 fused to positions 10-68 of native RANTES (SEQ ID NO: 1) (ligand)
chain: B1 chain with L8S
B16: RANTES derivative: signature sequence SEQ ID NO: 52 fused to positions 10-68 of native RANTES (SEQ ID NO: 1) (ligand)
chain: B1 chain with W7A, Q9S
B17: RANTES derivative: signature sequence SEQ ID NO: 51 fused to positions 10-68 of native RANTES (SEQ ID NO: 1) (ligand)
chain: B1 chain with M6Q, L8T
B18: RANTES derivative: signature sequence SEQ ID NO: 35 fused to positions 10-68 of native RANTES (SEQ ID NO: 1) (ligand)
chain: B1 chain with L5G, L8S, V10S
B19: RANTES derivative: signature sequence SEQ ID NO: 61 fused to positions 10-68 of native RANTES (SEQ ID NO: 1) (ligand)
chain: B1 chain with M6Q, L8M
B20: RANTES derivative: signature sequence SEQ ID NO: 45 fused to positions 10-68 of native RANTES (SEQ ID NO: 1) (ligand)
chain: B1 chain with W7S, Q9T
B21: RANTES derivative: signature sequence SEQ ID NO: 50 fused to positions 10-68 of native RANTES (SEQ ID NO: 1) (ligand)
chain: B1 chain with M6Q, L8F
B22: RANTES derivative: signature sequence SEQ ID NO: 47 fused to positions 10-68 of native RANTES (SEQ ID NO: 1) (ligand)
chain: B1 chain with P4L, L5S, M6Q, W7S, L8S
B23: RANTES derivative: signature sequence SEQ ID NO: 43 fused to positions 10-68 of native RANTES (SEQ ID NO: 1) (ligand)
chain: B1 chain with L5M, M6Q, W7G, L8G, Q9L, V10S
B24: RANTES derivative: signature sequence SEQ ID NO: 49 fused to positions 10-68 of native RANTES (SEQ ID NO: 1) (ligand)
chain: B1 chain with P4L, L5G, M6Q, W7Q, L8G
B25: RANTES derivative: signature sequence SEQ ID NO: 36 fused to positions 10-68 of native RANTES (SEQ ID NO: 1) (ligand)
chain: B1 chain with M6Q, L8R, V10S
B26: RANTES derivative: signature sequence SEQ ID NO: 44 fused to positions 10-68 of native RANTES (SEQ ID NO: 1) (ligand)
chain: B1 chain with W7S, Q9A
B27: RANTES derivative: signature sequence SEQ ID NO: 34 fused to positions 10-68 of native RANTES (SEQ ID NO: 1) (ligand)
chain: B1 chain with M6S, L8Q, V10S
B28: RANTES derivative: signature sequence SEQ ID NO: 58 fused to positions 10-68 of native RANTES (SEQ ID NO: 1) (ligand)
chain: B1 chain with W7T
B29: RANTES derivative: signature sequence SEQ ID NO: 31 fused to positions 10-68 of native RANTES (SEQ ID NO: 1) (ligand)
chain: B1 chain with M6S, V10S
B30: RANTES derivative: signature sequence SEQ ID NO: 5 fused to positions 10-68 of native RANTES (SEQ ID NO: 1) (ligand)
chain: B1 chain with L8T, V10S
B31: RANTES derivative: signature sequence SEQ ID NO: 38 fused to positions 10-68 of native RANTES (SEQ ID NO: 1) (ligand)
chain: B1 chain with W7Q
B32: RANTES derivative: signature sequence SEQ ID NO: 32 fused to positions 10-68 of native RANTES (SEQ ID NO: 1) (ligand)
chain: B1 chain with L5G, M6Q, L8S
B33: RANTES derivative: signature sequence SEQ ID NO: 60 fused to positions 10-68 of native RANTES (SEQ ID NO: 1) (ligand)
chain: B1 chain with M6Q, L8M, V10A
B34: RANTES derivative: signature sequence SEQ ID NO: 46 fused to positions 10-68 of native RANTES (SEQ ID NO: 1) (ligand)
chain: B1 chain with P4L, L5S, M6G, L8A
B35: RANTES derivative: signature sequence SEQ ID NO: 40 fused to positions 10-68 of native RANTES (SEQ ID NO: 1) (ligand)
chain: B1 chain with L5M, M6S, L8S, V10S
B36: RANTES derivative: signature sequence SEQ ID NO: 57 fused to positions 10-68 of native RANTES (SEQ ID NO: 1) (ligand)
chain: B1 chain with W7G, Q9S
B37: RANTES derivative: signature sequence SEQ ID NO: 62 fused to positions 10-68 of native RANTES (SEQ ID NO: 1) (ligand)
chain: B1 chain with W7S, L8T
B38: RANTES derivative: signature sequence SEQ ID NO: 48 fused to positions 10-68 of native RANTES (SEQ ID NO: 1) (ligand)
chain: B1 chain with P4L, L5S, M6S, W7Q, L8S

Target: CCR5 (UniProt P51681)
Experiment: cell-based or functional assay

Binder	CCR5 sequestration (%) (% of control surface CCR5)	CCR5 signalling (%) (% of Emax of PSC-RANTES)	anti-HIV potency (IC50, nM) by cell fusion assay [nM]	anti-HIV potency (IC50, nM) by viral replication assay [nM]
B1	3	4.6	0.02	0.38
B2	15	6	0.23	–
B3	12	2.1	0.06	–
B4	15	7.5	0.15	–
B5	9	0	0.12	–
B6	50	42.7	0.03	–
B7	3	1.4	0.02	289
B8	10	0.7	0.02	0.179
B9	5	1.7	0.1	–
B10	5	0.7	0.09	–
B11	0	0.2	0.03	–
B12	33	7.3	0.07	–
B13	4	4.1	0.01	–
B14	0	0.2	0.16	–
B15	16	5.1	0.02	–
B16	11	8.3	0.02	–
B17	12	5	0.02	–
B18	5	4.9	0.05	–
B19	7	12.7	0.02	–

Binder	CCR5 sequestration (%) (% of control surface CCR5)	CCR5 signalling (%) (% of Emax of PSC-RANTES)	anti-HIV potency (IC50, nM) by cell fusion assay [nM]	anti-HIV potency (IC50, nM) by viral replication assay [nM]
B20	62	77.4	0.02	–
B21	11	7.6	0.02	–
B22	78	96.9	0.44	–
B23	4	0.3	0.29	–
B24	77	97.2	0.74	–
B25	7	5.1	0.05	–
B26	60	68.5	0.02	–
B27	8	5.1	0.03	–
B28	25	0.7	0.23	–
B29	6	3.6	0.02	–
B30	0	5.3	0.02	0.576
B31	3	0.3	0.1	–
B32	5	6	0.03	–
B33	8	11.8	0.02	–
B34	72	97.6	0.4	–
B35	6	0	0.11	–
B36	18	4.9	0.16	–
B37	45	29.6	0.03	–
B38	78	100	0.64	–
